We go through 19 variants from the supplement of paper PMC10201428.

To fix the notation:
B1: library; a variant is named by its letters at N, in order (parent)
chain: AATGTTGTTGATGCAACCATAAAGTGATATTTAATAATTATTTATAATCAGCAACTTAACCACAAAACAACCATATATTGATATNTCACAAAACAACCATAANTTGATATTTTTGTGAATCGAGTATTTCAGCAAAACTACTGCAGTAAGAA

± gives the standard deviation of the averaged measurements.

Variants of B1 are the subject of data set [1]. The data set is described as follows: relative integration efficiency (T-LR orientation) vs wild-type transposon end (log2 (normalized fold change)); transposon end mutated: left end; higher = more efficient transposition. The note with it: with VchCAST RNA-guided transposition machinery (E. coli BL21(DE3) host, lacZ target). The essentials: (§1)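 Barcode abundances in input plasmids and in genomic integration junctions were obtained by PCR amplification and Illumina sequencing. These came from E. coli BL21(DE3) co-transformed with a T7-driven effector plasmid and a pUC57 donor carrying 1549 left-end or 1849 right-end transposon variants, then plated with 0.1 mM IPTG at 37°C for 18 h. Relative integration efficiency is the output/input fold change, normalised to reference barcodes and log-transformed.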

The variants in data set [2] derive from B1. Description: relative integration efficiency (T-RL orientation) vs wild-type transposon end (log2 (normalized fold change)); transposon end mutated: left end; higher = more efficient transposition. The following applies: with VchCAST RNA-guided transposition machinery (E. coli BL21(DE3) host, lacZ target). In outline: as §1

With AATGTTGTTGATGCAACCATAAAGTGAGCGGTAATAATTATTTATAATCAGCAACTTAACCACAAAACAACCATATATTGATATCTCACAAAACAACCATAAGTTGATATTTTTGTGAATCGAGTATTTCAGCAAAACTACTGCAGTAAGAA [CG T28G A29C T30G T31G], the entries for the “relative integration efficiency (log2)” value in data set [1] and in data set [2] were -2.32 ± 0.87 and -1.98 ± 0.8, respectively.

Take AATGTTGTTGATGCAACCATAAAGTGATACTTAATAATTATTTATAATCAGCAACTTAACCACAAAACAACCATATATTGATATCTCACAAAACAACCATAAGTTGATATTTTTGTGAATCGAGTATTTCAGCAAAACTACTGCAGTAAGAA [CG T30C]: the “relative integration efficiency (log2)” value in data set [1] came out at 0.128 ± 0.19; in data set [2] it was 0.0623 ± 0.096.

For AATGTTGTTGATGCAACCATAAAGTGATAATTAATAATTATTTATAATCAGCAACTTAACCACAAAACAACCATATATTGATATCTCACAAAACAACCATAAGTTGATATTTTTGTGAATCGAGTATTTCAGCAAAACTACTGCAGTAAGAA [CG T30A], the results for the “relative integration efficiency (log2)” value in data set [1] and in data set [2] were 0.497 ± 0.092 and 0.256 ± 0.046, respectively.

Take AATGTTGTTGATGCAACCATAAAGTGATAGTTAATAATTATTTATAATCAGCAACTTAACCACAAAACAACCATATATTGATATCTCACAAAACAACCATAAGTTGATATTTTTGTGAATCGAGTATTTCAGCAAAACTACTGCAGTAAGAA [CG T30G]: the “relative integration efficiency (log2)” value in data set [1] is -0.765 ± 0.6; in data set [2], -0.614 ± 0.37.

As to AATGTTGTTGATGCAACCATAAAGTGAGATTTAATAATTATTTATAATCAGCAACTTAACCACAAAACAACCATATATTGAGATCTCACAAAACAACCATAAGTTGAGATTTTTGTGAATCGAGTATTTCAGCAAAACTACTGCAGTAAGAA [CG T28G T82G T108G], the “relative integration efficiency (log2)” value is -3.23 ± 3.2 in data set [1] and -2.28 ± 0.9 in data set [2].

AATGTTGTTGATGCAACCATAAAGTGATAAATAATAATTATTTATAATCAGCAACTTAACCACAAAACAACCATATATTGATATCTCACAAAACAACCATAAGTTGATATTTTTGTGAATCGAGTATTTCAGCAAAACTACTGCAGTAAGAA [CG T30A T31A]: the figures for the “relative integration efficiency (log2)” value in data set [1] and in data set [2] were 0.174 ± 0.14 and 0.109 ± 0.27, respectively.

AATGTTGTTGATGCAACCATAAAGTGATAATTAATAATTATTTATAATCAGCAACTTAACCACAAAACAACCATATATTGATAACTCACAAAACAACCATAAGTTGATAATTTTGTGAATCGAGTATTTCAGCAAAACTACTGCAGTAAGAA [CG T30A T84A T110A]: the “relative integration efficiency (log2)” value is -0.322 ± 0.51 in data set [1] and -0.403 ± 0.24 in data set [2].

On to AATGTTGTTGATGCAACCATAAAGTGAGCTTTAATAATTATTTATAATCAGCAACTTAACCACAAAACAACCATATATTGATATCTCACAAAACAACCATAAGTTGATATTTTTGTGAATCGAGTATTTCAGCAAAACTACTGCAGTAAGAA [CG T28G A29C], for which the “relative integration efficiency (log2)” value in data set [1] is -1.26 ± 0.97; in data set [2] it was -1.24 ± 0.55.

Consider AATGTTGTTGATGCAACCATAAAGTGATAACTAATAATTATTTATAATCAGCAACTTAACCACAAAACAACCATATCTTGATATCTCACAAAACAACCATAAGTTGATATTTTTGTGAATCGAGTATTTCAGCAAAACTACTGCAGTAAGAA [CG T30A T31C A77C], for which the “relative integration efficiency (log2)” value in data set [1] is -0.793 ± 0.14; in data set [2] it was -0.48 ± 0.16.

For the variant AATGTTGTTGATGCAACCATAAAGTGATAACAAATAATTATTTATAATCAGCAACTTAACCACAAAACAACCATATATTGATATCTCACAAAACAACCATAAGTTGATATTTTTGTGAATCGAGTATTTCAGCAAAACTACTGCAGTAAGAA [CG T30A T31C T32A], the “relative integration efficiency (log2)” value is -0.303 ± 0.45 in data set [1] and -0.29 ± 0.22 in data set [2].

With AATGTTGTTGATGCAACCATAAAGTGATAAAATATAATTATTTATAATCAGCAACTTAACCACAAAACAACCATATATTGATAAGAGACAAAACAACCATAAGTTGATAAAAATGTGAATCGAGTATTTCAGCAAAACTACTGCAGTAAGAA [GG T30A T31A T32A A33T T84A T86A C87G T110A T111A T112A T113A], the figures for the “relative integration efficiency (log2)” value in data set [1] and in data set [2] were -1.77 ± 2.3 and -1.15 ± 0.64, respectively.

For AATGTTGTTGATGCAACCATAAAGTGATAAAATATAATTATTTATAATCAGCAACTTAACCACAAAACAACCATATATTGATATCTCACAAAACAACCATAAGTTGATATTTTTGTGAATCGAGTATTTCAGCAAAACTACTGCAGTAAGAA [CG T30A T31A T32A A33T], the “relative integration efficiency (log2)” value is -0.351 ± 0.54 in data set [1] and -0.346 ± 0.29 in data set [2].

Turning to AATGTTGTTGATGCAACCATAAAGTGATAGGGCATAATTATTTATAATCAGCAACTTAACCACAAAACAACCATATATTGATATCTCACAAAACAACCATAAGTTGATATTTTTGTGAATCGAGTATTTCAGCAAAACTACTGCAGTAAGAA [CG T30G T31G T32G A33C], the “relative integration efficiency (log2)” value was -1.21 ± 0.73 in data set [1] and -1.06 ± 0.5 in data set [2].

Turning to AATGTTGTTGATGCAACCATAAAGTGATAACAAATAATTATTTATAATCAGCAACTTAACCACAAAACAACCATATCTTGATATCGCACAAAACAACCATAAGTTGATATTTTTGTGAATCGAGTATTTCAGCAAAACTACTGCAGTAAGAA [CG T30A T31C T32A A77C T86G], the “relative integration efficiency (log2)” value came to 0.153 ± 0.44 in data set [1] and 0.116 ± 0.27 in data set [2].

As to AATGTTGTTGATGCAACCATAAAGTGATAGGGCATAATTATTTATAATCAGCAACTTAACCACAAAACAACCATATATTGATAGAGAACAAAACAACCATAAGTTGATAGGGGTGTGAATCGAGTATTTCAGCAAAACTACTGCAGTAAGAA [AG T30G T31G T32G A33C T84G T86G C87A T110G T111G T112G T113G], the “relative integration efficiency (log2)” value is -2.2 ± 1.2 in data set [1] and -2.54 ± 0.82 in data set [2].

As for AATGTTGTTGATGCAACCATAAAGTGAGATTTAATAATTATTTATAATCAGCAACTTAACCACAAAACAACCATATATTGATATCTCACAAAACAACCATAAGTTGATATTTTTGTGAATCGAGTATTTCAGCAAAACTACTGCAGTAAGAA [CG T28G], the results for the “relative integration efficiency (log2)” value in data set [1] and in data set [2] were -0.845 ± 0.19 and -0.536 ± 0.28, respectively.

On to AATGTTGTTGATGCAACCATAAAGTGATAGGTAATAATTATTTATAATCAGCAACTTAACCACAAAACAACCATATATTGATATCTCACAAAACAACCATAAGTTGATATTTTTGTGAATCGAGTATTTCAGCAAAACTACTGCAGTAAGAA [CG T30G T31G], for which the “relative integration efficiency (log2)” value was -1.56 ± 0.31 in data set [1] and -0.964 ± 0.45 in data set [2].

For AATGTTGTTGATGCAACCATAAAGTGATATATAATAATTATTTATAATCAGCAACTTAACCACAAAACAACCATATATTGATATCTCACAAAACAACCATAAGTTGATATTTTTGTGAATCGAGTATTTCAGCAAAACTACTGCAGTAAGAA [CG T31A], the entries for the “relative integration efficiency (log2)” value in data set [1] and in data set [2] were 0.0948 ± 0.84 and -0.128 ± 0.14, respectively.

Regarding AATGTTGTTGATGCAACCATAAAGTGATAGTTAATAATTATTTATAATCAGCAACTTAACCACAAAACAACCATATATTGATAGCTCACAAAACAACCATAAGTTGATAGTTTTGTGAATCGAGTATTTCAGCAAAACTACTGCAGTAAGAA [CG T30G T84G T110G], the “relative integration efficiency (log2)” value in data set [1] is -2.2 ± 0.51; in data set [2], -1.92 ± 0.8.
